These results are taken from patent US20240174744A1 (SCIRHOM, published 2024).

Positions count from the first letter of the chain named.

The labels stand for the following.
B1: antibody 34 (antibody, V domains shown)
VH: QVTLKESGPGILQPSQTLSLTCSFSGFSLSTFSLGVGWIRQSSGKGLEWLAHIWWDDEKYYNPALKSRLTISKDTSKNQVFLKIANVDAADTATYYCARAYYSKSYYALDYWGQGTSVTVSS
VL: DIQMTQSPSSLSASLGERVSLTCRASQEISGYLSWLQQKPDGTIKRLIYAASTLDSGVPKRFSGSRSGSDYSLAISSLESEDFADYYCLQYANFPFTFGSGTKLEIK
notes: Mouse IgG, kappa light chain; also called clone #34; m34
B2: antibody 16 (antibody, V domains shown)
VH: QVTLKESGPGILQPSQTLSLTCSFSGFSLSTFALGVGWIRQPSGRGLEWLAHIWWDDDKYYNPALKSRLTISKDTSKNHVFLKIANVDTADTATYYCARITTYYYGMDYWGQGTSVTVSS
VL: DIVLSQSPATLSVTPGDSVSLFCRASQSIGNHLHWYQQESHASPRLLIKYASQSISGIPSRFSGSGSGTDFTLSINSVETEDFGMYFCQQSYNWPLTFGAGTKLELK
notes: Mouse IgG, kappa light chain; also called clone #16; m16
B3: antibody 43 (antibody, V domains shown)
VH: QVALKESGPGILQPSQTLSLTCSFSGFSLSTFGMGVGWIRQSSGKGLEWLANIWWDDDKYYNPALKSRLTISKDASKNQAFLKIANVDTADTATYYCARIGNYGSNYWYFDVWGTGTTVTVSS
VL: QIVLTQSPAIMSASPGERVTMTCSANSRISYMYWYQQKPGSSPRLLIYDTSNLASGVPVRFSGSGSGTSYSLTISRMEAEDAATYNCQQWSSYPLTFGAGTKLELK
notes: Mouse IgG, kappa light chain; also called clone #43
B4: antibody 42 (antibody, V domains shown)
VH: B3 VH with A3T, F24L, M34R, S42P, N52H, D58E, A75T, A80V, K83R, G101Q
VL: B3 VL with Q1L, R18K, S24G, N26T, Y33F, L45V, M77V, A82V, N86Y, S91N
notes: Mouse IgG, kappa light chain; also called clone #42; m42
B5: antibody 5 (antibody, V domains shown)
VH: B3 VH with A3T, S42P, N52H, D58E, P63S, D74A, A75T, G101S, D111N
VL: QVVLTQSPALMSASPGEKVTMTCSAGSSVSCMYWYQQKPGSSPRVLIYDTSNLASGVPARFTGSGSGTSYSLTISRMEAEDAASYYCQQWNSYPLTFGAGTKLELK
notes: Mouse IgG, kappa light chain; also called clone #5; purified antibody 5
B6: antibody 54 (antibody, V domains shown)
VH: QVTLKESGPGILQPSQTLSLTCSFSGFSLSTFGLGVGWIRQPSGKGLECLAHIWWDDDKYSNPALKSRLTISKDTSKNQVFLKIANVDSADTATYFCARILNYGSNYWYFDVWGTGTTVTVSS
VL: B3 VL with I10L, R18K, N26S, R28S, Y70F, I74V, N86Y, S91N
notes: Mouse IgG, kappa light chain; also called clone #54
B7: antibody 44 (antibody, V domains shown)
VH: B3 VH with A3T, S42P, G44E, N52H, A75T, A80I, A85T, D91E, A98S
VL: QIVLTQSPAVMSASPGEKVTMTCTASSSVYYMYWYQQTPGSSPRLLIYDTSNLASGVPVRFSGSGSGTSYSLTISRMEAEDAATYYCQQWNTYPLTFGAGTKLELK
notes: Mouse IgG, kappa light chain; also called clone #44; m44
B8: antibody 57 (antibody, V domains shown)
VH: B3 VH with A3T, S42P, N52H, A75T, A80I, T92S, Y95F, G101E
VL: B7 VL with V10I, T24S, Y30S, T38K, L45V, I74V, T92S
notes: Mouse IgG, kappa light chain; also called clone #57
B9: antibody 22 (antibody, V domains shown)
VH: B3 VH with A3T, S42P, N52H, D58E, P63S, D74A, A75T, A80V, G101S, D111N
VL: B5 VL with C31Y, S84T
notes: Mouse IgG, kappa light chain; also called clone #22; m22
B10: antibody 56 (antibody, V domains shown)
VH: B3 VH with A3T, S42P, A51T, P63S, A64V, A75T, A80V, G101A, N102A
VL: B3 VL with R18K, N26S, R28S, I29V, L45V, A54S, N86Y
notes: Mouse IgG, kappa light chain; also called clone #56
B11: antibody 49 (antibody, V domains shown)
VH: QVTLKESGPGILQPSQTLSLTCSFSGFSLSTFGMGVGWIRQPSGKGLEWLAHIWWDDDKYYNPALQSRLTVSKDTAKNQVFLKIANVDTADTAIYYCARVGNYGSNYWYFAVWGTGTTVTVSS
VL: B7 VL with V10I, T24S, Y30S, T38K, T92S
notes: Mouse IgG, kappa light chain; also called clone #49
B12: antibody 48 (antibody, V domains shown)
VH: QVQLQQSGTELVRPGTSVKVSCKASGYAFTNYLIEWVKQRPGQGLEWIGVINPGSGFTKYNEKFKGKATLTADKSSSTVYMHLSSLTSEDSAVYFCARGLYRAMDYWGQGTSVTVSS
VL: DIQMTQSPASQSASLGESVTITCLASQTIATWLAWYQQKPGKSPQLLIYGATTLADGVPSRFSGGGSGTKFSFKISSLQAEDFVSYYCQQLYSTPYTFGGGTKLEIK
notes: Mouse IgG, kappa light chain; also called clone #48; purified antibody 48
B13: antibody 47 (antibody, V domains shown)
VH: B12 VH with T9A, K59N, T69I, T71N, V79A, H82Q, S84I, G99D, Y101K, Y106H
VL: B12 VL with A30G, Y49H, G50A, T53S, G65S, L91I, T94S
notes: Mouse IgG, kappa light chain; also called clone #47
B14: antibody 50 (antibody, V domains shown)
VH: B12 VH with T9A, T16A, T30S, V79A, H82Q
VL: B12 VL with A30G, G50A, T52A, T53S, S85N, L91I
notes: Mouse IgG, kappa light chain; also called clone #50; purified antibody 50
B15: antibody 51 (antibody, V domains shown)
VH: QVQLQQSGAELVKPGASVKISCKASGYTFSNYWMNWVKQRPGKGLEWIGQIYPGDGDTKYNGKFKNKATLTADKSSSTAYMQFSSLTSEDSAVYFCARGDLVFVYWGLGTLVTVSA
VL: DVQITQSPSYLAVSPGETITINCRASKNIRKYLAWYQEKPGKTNKLLIYSGSTSQSGVPSRFSGSGSGTDFTLTISSLEPEDFAMYYCQQHNEYPYTFGGGTKLEIK
notes: Mouse IgG, kappa light chain; also called clone #51
B16: antibody 46 (antibody, V domains shown)
VH: QVTLKESGPGILQPSQTLSLTCSFSGFSLSTFGMGVGWIRQPSGKGLEWLAHIWWDDDNYYNQALKSRLTISKDNTKNQVFLNIANVDTADTATYYCARIRSYDYDVRYAMDYWGQGTSVTVSS
VL: DIKMTQSPSSMYASLRERVTITCKASQDINSYLSWFQQKPGKSPKTLIYRANRLVDGVPSRFSGSGSGQDYSLTISSLEYEDLGIYYCQQYYEFPLTFGAGTRLELK
notes: Mouse IgG, kappa light chain; also called clone #46

The target in this test is T1, miR2-FL-WT-FLAG (mouse iRhom2 full length wild type C-terminally tagged with the triple-FLAG epitope) (mouse, UniProt Q80WQ6 1-827).
T1 construct: also called expressed by MEF-DKO-miR2-FL-WT-FLAG cells
T1 sequence: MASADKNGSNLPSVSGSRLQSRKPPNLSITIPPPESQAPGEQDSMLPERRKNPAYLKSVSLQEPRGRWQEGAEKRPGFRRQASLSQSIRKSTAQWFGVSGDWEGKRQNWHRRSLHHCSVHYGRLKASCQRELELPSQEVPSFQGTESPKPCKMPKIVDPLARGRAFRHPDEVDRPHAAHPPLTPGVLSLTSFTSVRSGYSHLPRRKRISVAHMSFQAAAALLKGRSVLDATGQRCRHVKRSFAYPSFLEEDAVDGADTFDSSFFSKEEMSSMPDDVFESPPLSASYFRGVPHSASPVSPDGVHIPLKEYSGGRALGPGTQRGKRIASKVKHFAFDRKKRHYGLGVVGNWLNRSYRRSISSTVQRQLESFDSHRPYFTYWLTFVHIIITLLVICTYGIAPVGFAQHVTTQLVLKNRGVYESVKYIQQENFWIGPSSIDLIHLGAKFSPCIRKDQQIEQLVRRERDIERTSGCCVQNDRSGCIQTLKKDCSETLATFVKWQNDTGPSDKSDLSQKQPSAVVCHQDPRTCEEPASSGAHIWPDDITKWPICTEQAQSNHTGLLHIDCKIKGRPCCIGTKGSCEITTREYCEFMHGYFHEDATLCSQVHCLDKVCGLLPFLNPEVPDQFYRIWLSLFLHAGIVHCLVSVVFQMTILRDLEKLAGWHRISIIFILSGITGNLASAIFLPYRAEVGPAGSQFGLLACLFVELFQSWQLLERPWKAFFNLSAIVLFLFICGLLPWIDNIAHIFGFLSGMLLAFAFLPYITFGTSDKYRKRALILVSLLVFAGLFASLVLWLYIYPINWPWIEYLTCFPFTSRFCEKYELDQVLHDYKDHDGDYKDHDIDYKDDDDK
Briefly: FACS, MEF-DKO-miR2-FL-WT-FLAG cells. On the procedure: In brief, immortalized MEF-DKO-EV control cells, MEF-DKO-hiR2-FL-WT-FLAG cells and MEF-DKO-miR2-FL-WT-FLAG cells were harvested with 10 mM EDTA in PBS, washed and resuspended in FACS buffer (PBS, 3% FBS, 0.05% sodium azide), and seeded in Nunc U-bottom 96-well plates (Thermo Fisher Scientific, USA) at approximately 3×10⁵ cells per well. To pellet cells and remove supernatants, the plates were centrifuged at 1,500 rpm and 4° C. for 3 minutes. For primary staining, cells were resuspended in 100 μl per well of either FACS buffer alone (controls), mouse monoclonal anti-FLAG IgG (Sigma-Aldrich, USA) at 3 μg/ml FACS buffer or the antibodies of the present disclosure also at 3 μg/ml FACS buffer and incubated on ice for 1 hour. Afterwards, plates were centrifuged at 1,500 rpm and 4° C. for 3 minutes and washed twice with 200 μl per well of FACS buffer. For secondary staining, cells were spun down and resuspended in 100 μl per well of PE-conjugated goat anti-mouse IgG F(ab′)2 detection fragment (Dianova, Germany) diluted 1:100 in FACS buffer. Protected from light, the cell suspensions were incubated on ice for 1 hour. Plates were then centrifuged at 1,500 rpm and 4° C. for 3 minutes and washed three times with 200 μl per well of FACS buffer. Finally, cells were resuspended in 150 μl per well of FACS buffer and analyzed using a BD Accuri™ C6 Plus flow cytometer (Becton Dickinson, Germany).
In the case of B1, the binding result is listed as “no binding (tested: 3 µg/ml)”.
On to B2, for which the binding result is given as “no binding (tested: 3 µg/ml)”.
Regarding B3, the binding result was “no binding (tested: 3 µg/ml)”.
With B4 the entry was “no binding (tested: 3 µg/ml)”.
As to B5, the binding result was “no binding (tested: 3 µg/ml)”.
For the molecule B6, the binding result is reported as “no binding (tested: 3 µg/ml)”.
For the molecule B7, the binding result is given as “no binding (tested: 3 µg/ml)”.
As to B8, the binding result is reported as “no binding (tested: 3 µg/ml)”.
Regarding B9, the binding result is “no binding (tested: 3 µg/ml)”.
With B10 the entry was “no binding (tested: 3 µg/ml)”; with B11, “no binding (tested: 3 µg/ml)”; with B12, “no binding (tested: 3 µg/ml)”.
For the molecule B13, the binding result is given as “no binding (tested: 3 µg/ml)”.
As for B14, the binding result was “no binding (tested: 3 µg/ml)”.
Consider B15, for which the binding result is on record as “no binding (tested: 3 µg/ml)”.
As to B16, the binding result is on record as “no binding (tested: 3 µg/ml)”.
